The record followed here is the supplement of paper PMC7877785.

± gives the uncertainty stated by the source.

The nature of the series: self-splicing fitness, log relative to wild type (ln ratio); higher = more splicing; Tetrahymena group I intron in knt gene, E. coli kanamycin selection, DiMSum; sequences stand for … in CUCUCU…GGAGGGAAAAGUUAUCAGGCAUGCACCUGGUAGCUAGUCUUUAAACCAAUAGAUUGCAUCGGUUUAAAAGGCAAGACCGUCAAAUUGCGGGAAAGGGGUCAACAGCCGUUCAGUACCAAGUCUCAGGGGAAACUUUGAGAUGGCCUUGCAAAGGGUAUGGUAAUAAGCUGACGGACAUGGUCCUAACCACGCAGCCAAGUCCUAAGUCAACAGAUCUUCUGUUGAUAUGGAUGCAGUUCACAGACUAAAUGUCGGUCGGGGAAGAUGUAUUCUUCUCAUAAGAUAUAGUCGGACCUCUCCUUAAUGGGAGCUAGCGGAUGAAGUGAUGCAACACUGGAGCCGCUGGGAACUAAUUUGUAUGCGAAAGUAUAUUGAUUAGUUUUGGAGUACUCGUGGUCG
Put shortly:
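Fitness was computed with DiMSum as the error-weighted combination of replicate fold changes, kanamycin versus none, each normalised to wild type. The library randomised all eight intron nucleotides of the P1ex region, with the intron placed in the knt kanamycin-resistance gene on pET-22b(+) in E. coli BL21(DE3). Six replicate transformations were grown overnight at 37°C or 30°C on LB agar with or without 25 μg/mL kanamycin, plus 100 μg/mL carbenicillin, 50 μM IPTG and 0.2% rhamnose. Pooled colonies were amplicon-sequenced on an Illumina HiSeq 2500.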

AUUCAGCAAUAUUACGUCAA: the “self-splicing fitness (ln)” value was -0.663 ± 0.11 (30 °C) and -0.912 ± 0.11 (37 °C).
As for CGCCAGCAAUAUUACGCUUA, the “self-splicing fitness (ln)” value runs as follows: (30 °C) -3.1 ± 0.21; (37 °C) -1.87 ± 0.17.
On to ACAUAGCAAUAUUACGCGUG, for which the “self-splicing fitness (ln)” value was -2.8 ± 0.1 (30 °C) and -1.28 ± 0.12 (37 °C).
On the same counts, the results for AAAAAGCAAUAUUACGUAAG are -1.08 ± 0.061 and -0.0629 ± 0.081.
With AAUGAGCAAUAUUACGUGGC, the “self-splicing fitness (ln)” value by setting is: (30 °C) -2.82 ± 0.15; (37 °C) -2.7 ± 0.2.
The corresponding values for GGACAGCAAUAUUACGGUAC are -0.625 ± 0.11 and -0.234 ± 0.13.
For the sequence CUGUAGCAAUAUUACGGCAU, the “self-splicing fitness (ln)” value reads like this: (30 °C) -3.45 ± 0.31; (37 °C) -1.86 ± 0.27.
As to AACAAGCAAUAUUACGUCCC, the “self-splicing fitness (ln)” value (30 °C) was -0.608 ± 0.12 and the “self-splicing fitness (ln)” value (37 °C) was -0.718 ± 0.17.
For the sequence GUUGAGCAAUAUUACGUGUC, the “self-splicing fitness (ln)” value is, setting by setting: (30 °C) -2.34 ± 0.14; (37 °C) -2.2 ± 0.2.
As for GCGAAGCAAUAUUACGAUCC, the “self-splicing fitness (ln)” value was -1.64 ± 0.21 (30 °C) and -1.76 ± 0.3 (37 °C).
For the sequence UGUAAGCAAUAUUACGGGGC, the “self-splicing fitness (ln)” value (30 °C) was -3.63 ± 0.23 and the “self-splicing fitness (ln)” value (37 °C) is -3.24 ± 0.25.
With CGGCAGCAAUAUUACGAGGG, the “self-splicing fitness (ln)” value by setting is: (30 °C) -2.39 ± 0.39; (37 °C) -2.15 ± 0.33.
On the same counts, the results for UCUCAGCAAUAUUACGUGCU are -4.22 ± 0.23 and -2.61 ± 0.2.
On the same counts, the results for AAAAAGCAAUAUUACGCCGU are -0.957 ± 0.064 and -0.392 ± 0.072.
The corresponding values for ACCAAGCAAUAUUACGAUAA are -3.07 ± 0.18 and -1.46 ± 0.16.
Consider UGAAAGCAAUAUUACGCAUG, for which the “self-splicing fitness (ln)” value reads like this: (30 °C) -0.902 ± 0.079; (37 °C) -0.484 ± 0.091.
On the same counts, the results for AGGGAGCAAUAUUACGCGUG are -2.4 ± 0.15 and -2.35 ± 0.23.
As to CGGUAGCAAUAUUACGUGAC, the “self-splicing fitness (ln)” value (37 °C) was -2.73 ± 0.41.
On to AGCGAGCAAUAUUACGGACC, for which the “self-splicing fitness (ln)” value is -0.957 ± 0.13 (30 °C) and -1.08 ± 0.18 (37 °C).
The corresponding values for CUGCAGCAAUAUUACGCCUU are -2.87 ± 0.15 and -2.94 ± 0.29.
The corresponding values for GGGAAGCAAUAUUACGUUAU are -2.98 ± 0.26 and -1.33 ± 0.18.
Regarding GGAGAGCAAUAUUACGGACU, the “self-splicing fitness (ln)” value is -1.52 ± 0.13 (30 °C) and -0.526 ± 0.17 (37 °C).
The corresponding values for UACUAGCAAUAUUACGGCGA are -0.849 ± 0.11 and 0.621 ± 0.13.
On the same counts, the results for UACUAGCAAUAUUACGUGAA are -2.19 ± 0.11 and -1.18 ± 0.13.
Take GAGAAGCAAUAUUACGUGAC: the “self-splicing fitness (ln)” value (30 °C) was -2.18 ± 0.12 and the “self-splicing fitness (ln)” value (37 °C) was -1.29 ± 0.17.
The corresponding values for CGUCAGCAAUAUUACGUAAA are -1.97 ± 0.06 and -1.21 ± 0.097.
On the same counts, the results for AUUUAGCAAUAUUACGAGCA are -1.66 ± 0.25 and -1.01 ± 0.18.
On to UAUCAGCAAUAUUACGCAUG, for which the “self-splicing fitness (ln)” value (30 °C) was -1.1 ± 0.082 and the “self-splicing fitness (ln)” value (37 °C) came out at 0.181 ± 0.099.
For UUUAAGCAAUAUUACGUACC, the “self-splicing fitness (ln)” value (30 °C) is -2.05 ± 0.39.
As for GUGCAGCAAUAUUACGACCA, the “self-splicing fitness (ln)” value reads like this: (30 °C) -0.711 ± 0.1; (37 °C) -0.667 ± 0.13.
The corresponding values for GUGCAGCAAUAUUACGGAAU are -2.01 ± 0.073 and -0.012 ± 0.087.
In the case of CUUAAGCAAUAUUACGGAUA, the “self-splicing fitness (ln)” value (30 °C) was -1.88 ± 0.36.
With UAUAAGCAAUAUUACGGGAC, the “self-splicing fitness (ln)” value reads like this: (30 °C) -4.01 ± 0.37; (37 °C) -2.76 ± 0.32.
Regarding CCUAAGCAAUAUUACGGGUA, the “self-splicing fitness (ln)” value runs as follows: (30 °C) -2.36 ± 0.27; (37 °C) -1.67 ± 0.25.
As for AUAAAGCAAUAUUACGUACC, the “self-splicing fitness (ln)” value is, setting by setting: (30 °C) 0.0438 ± 0.19; (37 °C) -0.16 ± 0.4.
Regarding UACUAGCAAUAUUACGUCAU, the “self-splicing fitness (ln)” value (30 °C) was -2.66 ± 0.2 and the “self-splicing fitness (ln)” value (37 °C) is -1.74 ± 0.13.
As to UUGAAGCAAUAUUACGUCUU, the “self-splicing fitness (ln)” value (30 °C) was -3.1 ± 0.18 and the “self-splicing fitness (ln)” value (37 °C) was -1.24 ± 0.12.
As for ACUGAGCAAUAUUACGCCAC, the “self-splicing fitness (ln)” value (37 °C) is -2.31 ± 0.35.
Consider UUCAAGCAAUAUUACGGAGU, for which the “self-splicing fitness (ln)” value is, setting by setting: (30 °C) -3.82 ± 0.27; (37 °C) -2.56 ± 0.23.
On the same counts, the results for GAAAAGCAAUAUUACGUUAA are -2.85 ± 0.15 and -1.78 ± 0.13.
Regarding AUGAAGCAAUAUUACGAUCU, the “self-splicing fitness (ln)” value by setting is: (30 °C) -0.0854 ± 0.072; (37 °C) 0.317 ± 0.088.
Consider CGUUAGCAAUAUUACGGGUU, for which the “self-splicing fitness (ln)” value reads like this: (30 °C) -3.4 ± 0.24; (37 °C) -2.42 ± 0.25.
As to ACUGAGCAAUAUUACGUGUA, the “self-splicing fitness (ln)” value was -3.51 ± 0.2 (30 °C) and -2.5 ± 0.17 (37 °C).
On the same counts, the results for AUGCAGCAAUAUUACGAACA are -0.00786 ± 0.13 and 0.392 ± 0.16.
For the sequence AAAAAGCAAUAUUACGCCAA, the “self-splicing fitness (ln)” value was -2.26 ± 0.17 (30 °C) and -1.33 ± 0.12 (37 °C).
The corresponding values for AUGUAGCAAUAUUACGCAAG are -1.8 ± 0.14 and -0.627 ± 0.14.
Consider UCGAAGCAAUAUUACGCUUU, for which the “self-splicing fitness (ln)” value was -4.08 ± 0.3 (30 °C) and -2.94 ± 0.35 (37 °C).
For CGCUAGCAAUAUUACGGGUG, the “self-splicing fitness (ln)” value by setting is: (30 °C) -3.31 ± 0.12; (37 °C) -2.83 ± 0.13.
Consider AACCAGCAAUAUUACGUCUU, for which the “self-splicing fitness (ln)” value is, setting by setting: (30 °C) 0.0745 ± 0.044; (37 °C) 0.393 ± 0.063.
The corresponding values for CGUGAGCAAUAUUACGUGGA are -3.06 ± 0.15 and -2.11 ± 0.14.
On the same counts, the results for CAGGAGCAAUAUUACGCGCU are -2.49 ± 0.2 and -2.62 ± 0.41.
On the same counts, the results for ACUAAGCAAUAUUACGCUUG are -3.11 ± 0.21 and -2.1 ± 0.19.
In the case of ACUCAGCAAUAUUACGGCGG, the “self-splicing fitness (ln)” value is -0.825 ± 0.078 (30 °C) and -0.0415 ± 0.095 (37 °C).
On the same counts, the results for GUGCAGCAAUAUUACGAGUC are -2.57 ± 0.1 and -0.808 ± 0.099.
Regarding UGUAAGCAAUAUUACGCUGG, the “self-splicing fitness (ln)” value is, setting by setting: (30 °C) -1.24 ± 0.15; (37 °C) -1.85 ± 0.19.
The corresponding values for UGAAAGCAAUAUUACGUGAU are -0.954 ± 0.077 and -1.45 ± 0.13.
Take GUGAAGCAAUAUUACGUAGA: the “self-splicing fitness (ln)” value reads like this: (30 °C) -2.33 ± 0.17; (37 °C) -0.683 ± 0.17.
On the same counts, the results for CUACAGCAAUAUUACGAUUA are -2.88 ± 0.16 and -1.5 ± 0.15.
For the sequence CACUAGCAAUAUUACGAAUC, the “self-splicing fitness (ln)” value was -3.91 ± 0.19 (30 °C) and -2.58 ± 0.22 (37 °C).
Consider CCUGAGCAAUAUUACGACGC, for which the “self-splicing fitness (ln)” value by setting is: (30 °C) -3.08 ± 0.47; (37 °C) -0.889 ± 0.22.
On the same counts, the results for GGUCAGCAAUAUUACGUACA are -0.423 ± 0.087 and 0.547 ± 0.14.
On the same counts, the results for UGUCAGCAAUAUUACGCCUU are -1.38 ± 0.13 and -0.87 ± 0.14.
On the same counts, the results for UGCAAGCAAUAUUACGGAAA are -1.82 ± 0.17 and -2.45 ± 0.22.
On to GCAGAGCAAUAUUACGAAUU, for which the “self-splicing fitness (ln)” value (30 °C) was -3.99 ± 0.42 and the “self-splicing fitness (ln)” value (37 °C) is -2.05 ± 0.37.
The corresponding values for AGGGAGCAAUAUUACGGAAG are -3.61 ± 0.4 and -1.02 ± 0.33.
Regarding ACCCAGCAAUAUUACGGCGU, the “self-splicing fitness (ln)” value runs as follows: (30 °C) -2.08 ± 0.081; (37 °C) -0.746 ± 0.084.
On the same counts, the results for GAAGAGCAAUAUUACGAGUC are -4.22 ± 0.46 and -2.8 ± 0.47.
On the same counts, the results for GCUGAGCAAUAUUACGCGCG are -0.818 ± 0.16 and -0.503 ± 0.19.
On the same counts, the results for CUUUAGCAAUAUUACGUGCG are -2.29 ± 0.14 and -1.12 ± 0.12.
Take AUAGAGCAAUAUUACGCUUA: the “self-splicing fitness (ln)” value by setting is: (30 °C) -0.78 ± 0.084; (37 °C) 0.522 ± 0.16.
Turning to GUUUAGCAAUAUUACGAGGA, the “self-splicing fitness (ln)” value (30 °C) was -2.48 ± 0.44 and the “self-splicing fitness (ln)” value (37 °C) was -1.79 ± 0.37.
Regarding UCCUAGCAAUAUUACGUGUC, the “self-splicing fitness (ln)” value (30 °C) is -3.06 ± 0.34 and the “self-splicing fitness (ln)” value (37 °C) is -2.71 ± 0.38.
For GAUGAGCAAUAUUACGGGGA, the “self-splicing fitness (ln)” value (37 °C) is -2.04 ± 0.25.
With CCAAAGCAAUAUUACGCCCA, the “self-splicing fitness (ln)” value is -2.49 ± 0.33 (30 °C) and -2.72 ± 0.34 (37 °C).
For the sequence GAAGAGCAAUAUUACGUAUC, the “self-splicing fitness (ln)” value runs as follows: (30 °C) -3.42 ± 0.21; (37 °C) -3.41 ± 0.22.
With CAGGAGCAAUAUUACGCCAA, for the setting “30 °C”, the “self-splicing fitness (ln)” value was -2.89 ± 0.37.
Regarding AUGCAGCAAUAUUACGCCGA, the “self-splicing fitness (ln)” value by setting is: (30 °C) -1.55 ± 0.14; (37 °C) -0.543 ± 0.17.
